Tested on: E. necator
Assay: Leaf disc assay, dry inoculum (settling tower), decrease in disease severity / hyphal growth (Example 2)
Settings: decrease in disease severity (hyphal growth) relative to untreated control, value ± SE; for % decrease =/− SE TP1: time point 1 (untreated control hyphal growth ≥50%); for % decrease =/− SE TP2: time point 2

B1: GS3927 (nucleic acid)
sense: CUGAAUCAGAUGAUGGGGGUAAUGAACGUAUGAUAAAUAGUAAGAAACCGCGAAGUACAUGCUCGAAGACCCUAAGGGAAAAAGAUUUGAAAGAUGAUAAAGAAAAGUCCAGAUCUGAUGCUGUAGCUAAAAGAAAUGGUCGUACAGAGCGGAGAAGAACUGAAGAUCAAGAAACACAGAAGGAAUUGUCAAUUGGUACUAAAAAUACAAUGUGCAAUAGCACAGACUCUUCUAAAGUCUCUACAACGAUUGAAUCUCUUGAGUCUCCGACAUUAUCAAAUGGUAGAGUUUCAGACAAUUCAUCUAACAACCAAUUUCCAAUACCUUUAAAAAAAAGCUACCGUAAUUCAAAUUCUAGGAAAGGGAAAUUAGCCAAAAAUAAUUUCACAAGGGAAU
antisense: AUUCCCUUGUGAAAUUAUUUUUGGCUAAUUUCCCUUUCCUAGAAUUUGAAUUACGGUAGCUUUUUUUUAAAGGUAUUGGAAAUUGGUUGUUAGAUGAAUUGUCUGAAACUCUACCAUUUGAUAAUGUCGGAGACUCAAGAGAUUCAAUCGUUGUAGAGACUUUAGAAGAGUCUGUGCUAUUGCACAUUGUAUUUUUAGUACCAAUUGACAAUUCCUUCUGUGUUUCUUGAUCUUCAGUUCUUCUCCGCUCUGUACGACCAUUUCUUUUAGCUACAGCAUCAGAUCUGGACUUUUCUUUAUCAUCUUUCAAAUCUUUUUCCCUUAGGGUCUUCGAGCAUGUACUUCGCGGUUUCUUACUAUUUAUCAUACGUUCAUUACCCCCAUCAUCUGAUUCAG
% decrease =/− SE TP1: 7 ± 3%

B2: GS3922 (nucleic acid)
sense: CCCGAAUGAAUGCUAUCAACAUGGGAUAGUAGUUCACGUUCACUCCGAAAUUUUAUAUUACAAAACAUACACUCUGCAUGUUCUUUUCGAAUAUGAGCCUGUAACUUUGAAUAACUUGUGAAGCCUAGAUUUAAUGGCGUACCAUCUGAAUUAAAAGAUCCUGUCAAGCAACAUUCAUUACAGAAAUAUCGAGCACUGCCAUGAGCUCGCUCUUGGUGUCGACGAAGGCUGGCGGAACUAUCGAAACCUGAGUUGCAACUUUCGCCAGUGACAGGGUCAACAUGGACACAGGGAUACGGCAUAAGCUGAAGAUGUUCAGAGCGAAUAUGACGCUGGAGAGUUUGAUGUUUUCGGAAAUUUUGGCUACAGGGUGGGUAAUUUGUACAUUUGAAU
antisense: AUUCAAAUGUACAAAUUACCCACCCUGUAGCCAAAAUUUCCGAAAACAUCAAACUCUCCAGCGUCAUAUUCGCUCUGAACAUCUUCAGCUUAUGCCGUAUCCCUGUGUCCAUGUUGACCCUGUCACUGGCGAAAGUUGCAACUCAGGUUUCGAUAGUUCCGCCAGCCUUCGUCGACACCAAGAGCGAGCUCAUGGCAGUGCUCGAUAUUUCUGUAAUGAAUGUUGCUUGACAGGAUCUUUUAAUUCAGAUGGUACGCCAUUAAAUCUAGGCUUCACAAGUUAUUCAAAGUUACAGGCUCAUAUUCGAAAAGAACAUGCAGAGUGUAUGUUUUGUAAUAUAAAAUUUCGGAGUGAACGUGAACUACUAUCCCAUGUUGAUAGCAUUCAUUCGGG
% decrease =/− SE TP2: 27 ± 12%

B3: GS3921 (nucleic acid)
sense: UUCGCGGUGUCUUCCUUUCCAGAGCCUUUAGUCUUUGAAGGAUUUUCUUCUUCAUCCCCAUCUUCACCCUCCGCUUCUGCAUUGACUUCGUCGGCCUUUUUUGCUUUUUUUUCUUCCCCAGAUUUGCCUUUCGUUGUUAGAGCUCCUAGGCCACUAGCGAGAGAAUUUGAACCAUUACCACCGCCAACAAGAACUCCUGCUUUACCUCCUAUGGUCACCUCUUGAAUACUCUGACUUUCAUUUUCCGCAGCAUUGGCUUGCUUUUUGGAAGAUGAGCUAGAGUCAUGUGAUUUUUCUGAAUUCGAUGCCUUAUUUUUCUGAUCUUUU
antisense: AAAAGAUCAGAAAAAUAAGGCAUCGAAUUCAGAAAAAUCACAUGACUCUAGCUCAUCUUCCAAAAAGCAAGCCAAUGCUGCGGAAAAUGAAAGUCAGAGUAUUCAAGAGGUGACCAUAGGAGGUAAAGCAGGAGUUCUUGUUGGCGGUGGUAAUGGUUCAAAUUCUCUCGCUAGUGGCCUAGGAGCUCUAACAACGAAAGGCAAAUCUGGGGAAGAAAAAAAAGCAAAAAAGGCCGACGAAGUCAAUGCAGAAGCGGAGGGUGAAGAUGGGGAUGAAGAAGAAAAUCCUUCAAAGACUAAAGGCUCUGGAAAGGAAGACACCGCGAA
% decrease =/− SE TP1: 3 ± 8% | % decrease =/− SE TP2: 8 ± 8%

B4: GS3925 (nucleic acid)
sense: UUUGAAAAACACACAACCCCAGAAGAAUACGAUAGCAUAUCAUUGGCCAAGCACCCUCAGUUGCAUGUUGAGGAUGAUUCAUGGCAUAGAGCAACUGGUACUUGUAAGUGUAAUAACUGUUAAUGAAGUAUAUAAUCCCAAAAAAUAGAACCAUAUAACCAGCCGGUAGAAUUGAGUAUACAAUACACAAAAUGUAUACAAGGAUUGCAGAGGGUAGAUAAAACCCGUAUUUGAAGACAGGAGGCUGUGUAAGCUCCCAGCGAUCCCUAGGGCUUUUUGAAUACAUACGCAUAAUUGGAUAUAGAGACACACUGCCAAACUCUAAGAGCCUUAAUGGUAUGAAACCAA
antisense: UUGGUUUCAUACCAUUAAGGCUCUUAGAGUUUGGCAGUGUGUCUCUAUAUCCAAUUAUGCGUAUGUAUUCAAAAAGCCCUAGGGAUCGCUGGGAGCUUACACAGCCUCCUGUCUUCAAAUACGGGUUUUAUCUACCCUCUGCAAUCCUUGUAUACAUUUUGUGUAUUGUAUACUCAAUUCUACCGGCUGGUUAUAUGGUUCUAUUUUUUGGGAUUAUAUACUUCAUUAACAGUUAUUACACUUACAAGUACCAGUUGCUCUAUGCCAUGAAUCAUCCUCAACAUGCAACUGAGGGUGCUUGGCCAAUGAUAUGCUAUCGUAUUCUUCUGGGGUUGUGUGUUUUUCAAA
% decrease =/− SE TP1: 18 ± 4% | % decrease =/− SE TP2: 3 ± 6%

B5: GS1816: dsRNA trigger SEQ ID NO 174; gene target Plasma membrane ATPase (nucleic acid)
DNA: CAACCACTGAGACTTGTTCAATACATGATACACAATAGCAATCACTATCGTGACAGCAATAGAATAGCCCCAGACAACAATAATAGTGACAATGGAGGTTCTTCCGTCAGTAGATAAAAGGGAGTTTAATGTGGCAGGATCTGAAGGCTCACCAGCACCGCCAGTTAACCAACCAAAGAGACAGAAGAGAGTTGCAAGTACATCAACACCGAATATAGCAGCAACGAGTGCAAATGCAGGATAAGTCTCATCTCCTCTGGTGACAAAGATGAGCCAGTTTTCGGTGAGAGAAATTTGAAGGAATAACATTCCCTGGATAGATCCAAAGTTATCAATCATGCCACCATTAGGTAAGAAAAGCGAGCCACGTAATACCCATGTTCCAAGAGCAAGCAATATGCCAAGAACAACAGAGATAATCCAGATTTTAGGTAATTGCCACTCAACAGGTCGAATCTCAAAGTGAGCGTTGTCGTATGCAACTGCAATTGTGGCTAAATCGGCAAAAAGTGCAAGGAAGACAATTAAATCAACCCGGACAGTTTCGTTAATAATGATCATAGAGGTTACAAGATAGATTTCTAAGTGTAAACATAA
% decrease =/− SE TP1: 61 ± 2% | % decrease =/− SE TP2: 50 ± 7%

B6: GS3928 (nucleic acid)
sense: UUGAAGUGGUUAAAAAACAUGUUGAGGAAACAGAAUGGGAAGAAGAACCUUCCAAGAAUGGAAGACUUGAUAUUGAUAUAAUAACCGCGGAAGCAAUGACACUUGCUCAUCAAAUUGCAAGUGGUGAGAAGACUAAAUAUGAUCUCAUCGAUGAAGGUUGGAAUAAAAAUUCAUUCAAGGAUCGCGAUGGCCUUCCUGAUUGGUUUCUGGAUGAUGAGAGUAAACAUGAUAAACCUCAUAGACCUAUCAGUGCUGCCGCUGCAAAUGCUAUAAAAGAAAAGCUGCGAGCCCUGAAUGCUCGACCAAUCAAAAAAGUACGUGAGGCUAAGAGUCGGAAAAAAUUCAAAGCUGCCCAACGACUUGAAAAACUCCGAAAAAAAU
antisense: AUUUUUUUCGGAGUUUUUCAAGUCGUUGGGCAGCUUUGAAUUUUUUCCGACUCUUAGCCUCACGUACUUUUUUGAUUGGUCGAGCAUUCAGGGCUCGCAGCUUUUCUUUUAUAGCAUUUGCAGCGGCAGCACUGAUAGGUCUAUGAGGUUUAUCAUGUUUACUCUCAUCAUCCAGAAACCAAUCAGGAAGGCCAUCGCGAUCCUUGAAUGAAUUUUUAUUCCAACCUUCAUCGAUGAGAUCAUAUUUAGUCUUCUCACCACUUGCAAUUUGAUGAGCAAGUGUCAUUGCUUCCGCGGUUAUUAUAUCAAUAUCAAGUCUUCCAUUCUUGGAAGGUUCUUCUUCCCAUUCUGUUUCCUCAACAUGUUUUUUAACCACUUCAA
% decrease =/− SE TP1: 15 ± 6% | % decrease =/− SE TP2: 9 ± 7%

B7: GS3929 (nucleic acid)
sense: AUUGUUGAUAAGUUCACUGGAAAUCUCCGUUAUAGGAUCUAUUCCUUCAUUUUGUUUCCGGAGUUUUUCUUCUUGUCGAGCACUCAUUUUGGUAGAGAAUGCCCAACAUGAAAGGCCCAAUUCGCGACAUACUAUGCACACAUCUAGACGAGGCGCAGUUUUGUCUUUCGUUAUCGCAAUUCCAAUGCAACGACGACAUUGUAAGACAAAAUUCUCAUGACCAAUUUUAGUAACCAAGUGAUCUCUGUUACUUCGAGGACCAAGACAAUUUUUGUGGAUUGAAGUUGAGCAUCCUUGACAGUAAAUAAGUUGGCUUGGGCCCUUGUUCGAAUUUCUCUCAUUUCCAAAGCAAACAUCACAAAAUUUAUUAUGAAAACUUCGAAAUAAAUUUU
antisense: AAAAUUUAUUUCGAAGUUUUCAUAAUAAAUUUUGUGAUGUUUGCUUUGGAAAUGAGAGAAAUUCGAACAAGGGCCCAAGCCAACUUAUUUACUGUCAAGGAUGCUCAACUUCAAUCCACAAAAAUUGUCUUGGUCCUCGAAGUAACAGAGAUCACUUGGUUACUAAAAUUGGUCAUGAGAAUUUUGUCUUACAAUGUCGUCGUUGCAUUGGAAUUGCGAUAACGAAAGACAAAACUGCGCCUCGUCUAGAUGUGUGCAUAGUAUGUCGCGAAUUGGGCCUUUCAUGUUGGGCAUUCUCUACCAAAAUGAGUGCUCGACAAGAAGAAAAACUCCGGAAACAAAAUGAAGGAAUAGAUCCUAUAACGGAGAUUUCCAGUGAACUUAUCAACAAU
% decrease =/− SE TP2: 19 ± 7%

B8: GS3920 (nucleic acid)
sense: UCAACGUAAAUUUUAUAAGCAAGGCUCUGGUAAAGUGGAACCUUACUUUUUAAUCCUCAACAAGGAAGGAGAGUUCAUUGAUGUAGUCGUUGAAGGGCUGAUGAAUAACUUCAUAAGAUGUCAACAAACAAGAAAAAUCUCUACAGAAUUAAUUUCAGAUGCACCUAAUCAACCGGUACCAUCUCAAAUAUCUGGAUAUCAAUGUGGUAAAUUUUUUUUUAGCAAUGAGGAACUUGAGAAUACUGCAAAUGUGGCUAGAGAUAUCAUGCUUCAGAGAAGUCAAAAUAAAAUUCCCACUAAGUAUAA
antisense: UUAUACUUAGUGGGAAUUUUAUUUUGACUUCUCUGAAGCAUGAUAUCUCUAGCCACAUUUGCAGUAUUCUCAAGUUCCUCAUUGCUAAAAAAAAAUUUACCACAUUGAUAUCCAGAUAUUUGAGAUGGUACCGGUUGAUUAGGUGCAUCUGAAAUUAAUUCUGUAGAGAUUUUUCUUGUUUGUUGACAUCUUAUGAAGUUAUUCAUCAGCCCUUCAACGACUACAUCAAUGAACUCUCCUUCCUUGUUGAGGAUUAAAAAGUAAGGUUCCACUUUACCAGAGCCUUGCUUAUAAAAUUUACGUUGA
% decrease =/− SE TP1: 14 ± 11% | % decrease =/− SE TP2: 12 ± 12%
